Assay results reported in patent US20060257938A1, “Method of screening for drugs that block ligand binding to a lipid binding protein” (priority 2005, published 2006).
Positions count from the first letter of the chain named. Where “and” joins values, the source holds several entries; their conditions need not be identical. Identical values can stand only once.

B1: 72S 73M 74A (protein, listed as Rattus norvegicus)
chain: AFDGTWKVDRNENYEKFMEKMGINVVKRKLGAHDNLKLTITQEGNKFTVKESSNFRNIDVVFELGVDFAYSSMAGTELTGTWTMEGNKLVGKFKRVDNGKELIAVREISGNELIQTYTYEGVEAKRIFKKE
modifications: PEPTIDE (1)...(131) wild-type rat intestinal fatty acid binding protein
B2: 18I 31A 73F 72A (protein, listed as Rattus norvegicus)
chain: B1 chain with M18I, G31A, S72A, M73F, A74D
modifications: PEPTIDE (1)...(131) wild-type rat intestinal fatty acid binding protein
B3: 18I 31I 55M 73V 72A (protein, listed as Rattus norvegicus)
chain: B1 chain with M18I, G31I, F55M, S72A, M73V, A74D
modifications: PEPTIDE (1)...(131) wild-type rat intestinal fatty acid binding protein
B4: 72V 73W 74S (protein, listed as Rattus norvegicus)
chain: B1 chain with S72V, M73W, A74S
modifications: PEPTIDE (1)...(131) wild-type rat intestinal fatty acid binding protein
B5: 72A 73W 74A (protein, listed as Rattus norvegicus)
chain: B1 chain with S72A, M73W
modifications: PEPTIDE (1)...(131) wild-type rat intestinal fatty acid binding protein
B6: 18I 31V 73G 72A (protein, listed as Rattus norvegicus)
chain: B1 chain with M18I, G31V, S72A, M73G, A74D
modifications: PEPTIDE (1)...(131) wild-type rat intestinal fatty acid binding protein
B7: 72G 73F 74E (protein, listed as Rattus norvegicus)
chain: B1 chain with S72G, M73F, A74E
modifications: PEPTIDE (1)...(131) wild-type rat intestinal fatty acid binding protein
B8: 72T 73V 74A (protein, listed as Rattus norvegicus)
chain: B1 chain with S72T, M73V
modifications: PEPTIDE (1)...(131) wild-type rat intestinal fatty acid binding protein
B9: 18V 31A 73F 72A (protein, listed as Rattus norvegicus)
chain: B1 chain with M18V, G31A, S72A, M73F, A74D
modifications: PEPTIDE (1)...(131) wild-type rat intestinal fatty acid binding protein
B10: 72I 73W 74N (protein, listed as Rattus norvegicus)
chain: B1 chain with S72I, M73W, A74N
modifications: PEPTIDE (1)...(131) wild-type rat intestinal fatty acid binding protein
B11: 18V 31A 73W 72A (protein, listed as Rattus norvegicus)
chain: B1 chain with M18V, G31A, S72A, M73W, A74D
modifications: PEPTIDE (1)...(131) wild-type rat intestinal fatty acid binding protein
B12: 18I 31I 55M 73I 72A (protein, listed as Rattus norvegicus)
chain: B1 chain with M18I, G31I, F55M, S72A, M73I, A74D
modifications: PEPTIDE (1)...(131) wild-type rat intestinal fatty acid binding protein
B13: 18V 31A 55W 73W 72A (protein, listed as Rattus norvegicus)
chain: B1 chain with M18V, G31A, F55W, S72A, M73W, A74D
modifications: PEPTIDE (1)...(131) wild-type rat intestinal fatty acid binding protein
B14: 72A 73P 74V (protein, listed as Rattus norvegicus)
chain: B1 chain with S72A, M73P, A74V
modifications: PEPTIDE (1)...(131) wild-type rat intestinal fatty acid binding protein
B15: 72V 73W 74N (protein, listed as Rattus norvegicus)
chain: B1 chain with S72V, M73W, A74N
modifications: PEPTIDE (1)...(131) wild-type rat intestinal fatty acid binding protein
B16: 72T 73V 74N (protein, listed as Rattus norvegicus)
chain: B1 chain with S72T, M73V, A74N
modifications: PEPTIDE (1)...(131) wild-type rat intestinal fatty acid binding protein
B17: 18I 31Y 73V 72A (protein, listed as Rattus norvegicus)
chain: B1 chain with M18I, G31Y, S72A, M73V, A74D
modifications: PEPTIDE (1)...(131) wild-type rat intestinal fatty acid binding protein
B18: 14Q 18L 31A 73W 117V 72A (protein, listed as Rattus norvegicus)
chain: B1 chain with Y14Q, M18L, G31A, S72A, M73W, A74D, Y117V
modifications: PEPTIDE (1)...(131) wild-type rat intestinal fatty acid binding protein
B19: 72A 73W 74V (protein, listed as Rattus norvegicus)
chain: B1 chain with S72A, M73W, A74V
modifications: PEPTIDE (1)...(131) wild-type rat intestinal fatty acid binding protein

test: Probe fluorescence ratio response to linoleic acid relative to ADIFAB2; format: binding; conditions: response relative to ADIFAB2
Outline: (§1)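 Each fatty acid's response was expressed relative to ADIFAB2, the rI-FABP-L72A probe, as ΔR/ΔRreference. ΔR is the change in the background-corrected two-wavelength intensity ratio R=Fλ1/Fλ2 from its analyte-free baseline R0. Emission was read near about 420-480 nm for unbound and about 495-580 nm for FFA-bound probe.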

Compared with B1, B3 is lower in “DR/DR LA” value: 2.470 for the first, 1.981 for the second.

Going from B4 to B5, the “DR/DR LA” value falls from 1.819 to 1.466.

Compared with B6, B7 is lower in “DR/DR LA” value: 1.715 for the first, 1.467 for the second.

Compared with B8, B9 is lower in “DR/DR LA” value: 2.435 for the first, 1.527 for the second.

Going from B10 to B11, the “DR/DR LA” value rises from 1.194 to 2.540.

Compared with B12, B13 is higher in “DR/DR LA” value: 1.516 for the first, 1.555 for the second.

Going from B14 to B15, the “DR/DR LA” value falls from 2.735 to 1.726.

Going from B16 to B17, the “DR/DR LA” value falls from 2.407 to 2.242.

Compared with B18, B19 is higher in “DR/DR LA” value: 1.942 for the first, 2.338 for the second.

For B2, the “DR/DR LA” value was 1.732 and 1.652.

test: Probe fluorescence ratio response to linolenic acid relative to ADIFAB2; format: binding; conditions: response relative to ADIFAB2
Outline: as §1

First: B1
Second: B3
The “DR/DR LNA” value of the first is higher: 2.567 for the first, 2.408 for the second.

Going from B4 to B5, the “DR/DR LNA” value rises from 2.044 to 2.093.

Compared with B6, B7 is higher in “DR/DR LNA” value: 1.946 for the first, 2.415 for the second.

First: B8
Second: B9
The “DR/DR LNA” value of the first is higher: 2.597 for the first, 2.036 for the second.

First: B10
Second: B11
The “DR/DR LNA” value of the first is lower: 1.794 for the first, 2.770 for the second.

Going from B12 to B13, the “DR/DR LNA” value rises from 1.803 to 1.887.

Going from B14 to B15, the “DR/DR LNA” value falls from 2.845 to 2.384.

Going from B16 to B17, the “DR/DR LNA” value falls from 2.362 to 2.176.

Going from B18 to B19, the “DR/DR LNA” value rises from 1.958 to 2.752.

With B2 the “DR/DR LNA” value was 2.318 and 2.203.

test: Probe fluorescence ratio response to stearic acid relative to ADIFAB2; format: binding; conditions: response relative to ADIFAB2
Outline: as §1

Compared with B1, B3 is lower in “DR/DR SA” value: 1.776 for the first, 0.502 for the second.

Going from B4 to B5, the “DR/DR SA” value falls from 0.574 to 0.330.

First: B6
Second: B7
The “DR/DR SA” value of the first is higher: 0.543 for the first, 0.239 for the second.

Compared with B8, B9 is lower in “DR/DR SA” value: 1.146 for the first, 0.375 for the second.

Compared with B10, B11 is higher in “DR/DR SA” value: 0.329 for the first, 0.722 for the second.

Going from B12 to B13, the “DR/DR SA” value rises from 0.382 to 0.392.

Compared with B14, B15 is lower in “DR/DR SA” value: 1.178 for the first, 0.468 for the second.

Going from B16 to B17, the “DR/DR SA” value falls from 1.942 to 1.047.

Going from B18 to B19, the “DR/DR SA” value rises from 0.384 to 0.602.

For B2, the “DR/DR SA” value was 0.404 and 0.406.

test: Probe fluorescence ratio response to arachidonic acid relative to ADIFAB2; format: binding; conditions: arachidonic acid; response relative to ADIFAB2
Outline: as §1

Going from B1 to B3, the “DR/DR AA” value falls from 2.759 to 1.710.

Compared with B4, B5 is lower in “DR/DR AA” value: 1.424 for the first, 0.892 for the second.

Going from B6 to B7, the “DR/DR AA” value falls from 1.348 to 0.910.

Compared with B8, B9 is lower in “DR/DR AA” value: 2.180 for the first, 1.142 for the second.

Compared with B10, B11 is higher in “DR/DR AA” value: 0.791 for the first, 1.761 for the second.

First: B12
Second: B13
The “DR/DR AA” value of the first is higher: 1.354 for the first, 1.130 for the second.

Going from B14 to B15, the “DR/DR AA” value falls from 2.354 to 1.191.

Going from B16 to B17, the “DR/DR AA” value falls from 2.484 to 1.801.

Compared with B18, B19 is higher in “DR/DR AA” value: 1.558 for the first, 1.768 for the second.

In the case of B2, the “DR/DR AA” value is reported as 1.314 and 1.296.

test: Probe fluorescence ratio response to palmitic acid relative to ADIFAB2; format: binding; conditions: response relative to ADIFAB2
Outline: as §1

First: B1
Second: B3
The “DR/DR PA” value of the first is higher: 2.524 for the first, 1.883 for the second.

Compared with B4, B5 is higher in “DR/DR PA” value: 1.789 for the first, 1.942 for the second.

Going from B6 to B7, the “DR/DR PA” value falls from 1.630 to 0.981.

Compared with B8, B9 is lower in “DR/DR PA” value: 2.362 for the first, 1.510 for the second.

Going from B10 to B11, the “DR/DR PA” value rises from 2.091 to 2.218.

Going from B12 to B13, the “DR/DR PA” value falls from 1.546 to 1.505.

Compared with B14, B15 is lower in “DR/DR PA” value: 2.406 for the first, 2.229 for the second.

Compared with B16, B17 is lower in “DR/DR PA” value: 2.250 for the first, 1.615 for the second.

First: B18
Second: B19
The “DR/DR PA” value of the first is lower: 1.084 for the first, 2.525 for the second.

With B2 the “DR/DR PA” value was 1.515 and 1.372.

test: Probe fluorescence ratio response to palmitoleic acid relative to ADIFAB2; format: binding; conditions: response relative to ADIFAB2
Outline: as §1

Going from B1 to B3, the “DR/DR POA” value falls from 2.854 to 2.478.

Compared with B4, B5 is higher in “DR/DR POA” value: 2.662 for the first, 3.016 for the second.

First: B6
Second: B7
The “DR/DR POA” value of the first is lower: 2.122 for the first, 2.519 for the second.

First: B8
Second: B9
The “DR/DR POA” value of the first is higher: 3.011 for the first, 2.677 for the second.

First: B10
Second: B11
The “DR/DR POA” value of the first is higher: 3.236 for the first, 3.184 for the second.

Going from B12 to B13, the “DR/DR POA” value rises from 1.903 to 2.042.

Going from B14 to B15, the “DR/DR POA” value falls from 3.613 to 3.507.

First: B16
Second: B17
The “DR/DR POA” value of the first is higher: 2.816 for the first, 2.088 for the second.

Compared with B18, B19 is higher in “DR/DR POA” value: 2.008 for the first, 3.856 for the second.

With B2 the “DR/DR POA” value was 2.730 and 2.522.

test: Probe fluorescence ratio response to oleic acid relative to ADIFAB2; format: binding; conditions: response relative to ADIFAB2
Outline: as §1

Compared with B1, B3 is lower in “DR/DR OA” value: 2.443 for the first, 1.188 for the second.

First: B4
Second: B5
The “DR/DR OA” value of the first is higher: 1.477 for the first, 0.933 for the second.

First: B6
Second: B7
The “DR/DR OA” value of the first is higher: 0.968 for the first, 0.585 for the second.

Going from B8 to B9, the “DR/DR OA” value falls from 1.950 to 0.828.

First: B10
Second: B11
The “DR/DR OA” value of the first is lower: 0.779 for the first, 1.738 for the second.

First: B12
Second: B13
The “DR/DR OA” value of the first is lower: 0.822 for the first, 0.913 for the second.

Compared with B14, B15 is lower in “DR/DR OA” value: 2.187 for the first, 1.146 for the second.

First: B16
Second: B17
The “DR/DR OA” value of the first is higher: 2.491 for the first, 1.818 for the second.

Going from B18 to B19, the “DR/DR OA” value rises from 1.478 to 1.574.

In the case of B2, the “DR/DR OA” value is reported as 0.950 and 0.995.
